Test results: US20080058263A1 (published 2008)
Numbering of substitutions follows the chain as printed.

T1: VEGFR-3-Fc (UniProt P35916 25-328)
T1 construct: domain: first three Ig domains; conditioned supernatant of 293T cells; also called VEGFR-3-Fc fusion protein; not shown: Fc fragment of the pIg vector
T1 sequence (looked up): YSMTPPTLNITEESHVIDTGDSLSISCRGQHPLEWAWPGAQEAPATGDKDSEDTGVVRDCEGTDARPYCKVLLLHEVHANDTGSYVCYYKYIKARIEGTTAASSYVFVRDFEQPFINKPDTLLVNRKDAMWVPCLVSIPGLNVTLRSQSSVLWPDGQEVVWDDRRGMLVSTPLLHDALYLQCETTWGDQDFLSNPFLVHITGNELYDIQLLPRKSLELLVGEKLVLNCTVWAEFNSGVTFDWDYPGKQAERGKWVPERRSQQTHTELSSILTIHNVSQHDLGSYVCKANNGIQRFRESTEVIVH

B1: 22-14 (ligand)
chain: AHYNTEILKSIDNEWRKTQCMPREVCIDVGKEFGVATNTFFKPPCVSVYRCGGCCNDEGLECMNTSTSYLSKTLFEITVPLSQGPKPVTISFANHTSCRCMSKLD
B2: 23-16 (ligand)
chain: B1 chain with F33Y, G34P, V35D, A36E, T37I, N38E, T39Y, F40I, D57S, E61Q
B3: 72-14 (ligand)
chain: B1 chain with A1G, H2Q, Y3N, N4H, T5H, I7V, L8V
B4: 52-14 (ligand)
chain: B1 chain with R23I, V25T, C26L, I27V, V29I, G30F, K31Q
B5: 21-14 (ligand)
chain: AHYNTEILKSIDNEWRKTQCMPREVCIDVGKEYPDEIEYIFKPSCVPLMRCGGCCNDEGLECMNTSTSYLSKTLFEITVPLSQGPKPVTISFANHTSCRCMSKLD
B6: 22-10 (ligand)
chain: B1 chain with A93L, N94Q, T96N, S97K, R99E, M101R, S102P, L104K
B7: 52-16 (ligand)
chain: B1 chain with R23I, V25T, C26L, I27V, V29I, G30F, K31Q, D57S, E61Q
B8: 72-16 (ligand)
chain: B1 chain with A1G, H2Q, Y3N, N4H, T5H, I7V, L8V, D57S, E61Q
B9: 24-10 (ligand)
chain: AHYNTEILKSIDNEWRKTQCMPREVCIDVGKEFGVATNTFFKPSCVPLMRCGGCCNDEGLECMNTSTSYLSKTLFEITVPLSQGPKPVTISFLQHNKCECRPKKD
B10: 24-16 (ligand)
chain: B1 chain with P44S, S47P, V48L, Y49M, D57S, E61Q
B11: 22-12 (ligand)
chain: B9 chain with S44P, P47S, L48V, M49Y, D57S, E61Q
B12: 24-14 (ligand)
chain: B1 chain with P44S, S47P, V48L, Y49M
B13: 22-2 (ligand)
chain: AHYNTEILKSIDNEWRKTQCMPREVCIDVGKEFGVATNTFFKPPCVSVYRCGGCCNDEGLECMNTSTSYLSKTLFEIKPHQGQHIGEMSFLQHNKCECRPKKD

molecular target: T2, VEGFR-1-Fc (UniProt P17948 27-338); test: receptor-Fc IP
T2 construct: domain: first three Ig domains; expressed in Drosophila S2 cells, purified on Protein A sepharose; also called VEGFR-1-Fc fusion protein; not shown: Fc fragment from the Signal-pIgPlus vector
Protocol: (§1) The binding assay procedure was identical to the immunoprecipitation using pentahistidine antibody described in Example 2, apart from the composition of the immunoprecipitation (IP) mixes. The IP mixes used for the receptor binding analysis were as follows: For VEGFR-1 binding assays, the IP mix was phosphate buffered saline (PBS) containing 1.5% BSA, 0.06% Tween 20, 3 μg/ml heparin and 400 ng/ml VEGFR-1-Fc fusion protein (100 μl of this IP mix was added to 200 μl of sample supernatant); for VEGFR-2 binding assays, the IP mix was 82% conditioned cell supernatant from 293T cells transiently expressing VEGFR-2-Fc fusion protein in mixture with 18% of a PBS solution that contained 5% BSA, 0.2% Tween 20, and 10 μg/ml heparin (250 μl of IP mix was added to 200 μl of sample supernatant); and for VEGFR-3 binding assays, the IP mix was 82% conditioned cell supernatant from 293T cells transiently expressing VEGFR-3-Fc fusion protein, 18% of PBS containing 5% BSA, 0.2% Tween 20, and 10 μg/ml heparin (250 μl of IP mix was added to 200 μl of sample supernatant).

T2 sequence (P17948 27-338): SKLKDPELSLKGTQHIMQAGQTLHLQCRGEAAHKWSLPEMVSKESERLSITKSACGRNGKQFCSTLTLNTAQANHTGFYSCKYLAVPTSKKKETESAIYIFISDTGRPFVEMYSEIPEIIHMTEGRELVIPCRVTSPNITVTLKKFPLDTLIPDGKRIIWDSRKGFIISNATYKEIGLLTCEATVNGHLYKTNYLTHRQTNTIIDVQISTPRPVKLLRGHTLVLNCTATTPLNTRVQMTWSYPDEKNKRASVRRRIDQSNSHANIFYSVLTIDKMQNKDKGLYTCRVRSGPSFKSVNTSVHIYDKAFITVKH

| Binder | binding result |
| --- | --- |
| B1 | no binding |
| B2 | no binding |
| B3 | no binding |
| B4 | no binding |
| B5 | no binding |
| B6 | no binding |
| B7 | no binding |
| B8 | no binding |
| B9 | no binding |
| B10 | no binding |
| B11 | no binding |
| B12 | no binding |
| B13 | no binding |

molecular target: T3, VEGFR-2-Fc (UniProt P35968 20-322); test: receptor-Fc IP
T3 construct: domain: first 3 Ig domains; conditioned supernatant of 293T cells; also called VEGFR-2-Fc fusion protein; not shown: Fc fragment of the pIg vector
Protocol: as §1

T3 sequence (P35968 20-322): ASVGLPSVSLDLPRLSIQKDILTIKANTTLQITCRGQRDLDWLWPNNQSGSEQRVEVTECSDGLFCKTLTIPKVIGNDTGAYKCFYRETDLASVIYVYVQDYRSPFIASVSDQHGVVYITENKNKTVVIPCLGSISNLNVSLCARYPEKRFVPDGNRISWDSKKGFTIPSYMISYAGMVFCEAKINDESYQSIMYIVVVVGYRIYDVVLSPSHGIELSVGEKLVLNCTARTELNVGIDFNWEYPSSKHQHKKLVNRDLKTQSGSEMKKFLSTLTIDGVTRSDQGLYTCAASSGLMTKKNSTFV

| Binder | binding result |
| --- | --- |
| B1 | binds |
| B2 | no binding |
| B3 | binds |
| B4 | no binding |
| B5 | no binding |
| B6 | binds |
| B7 | binds |
| B8 | binds |
| B9 | no binding |
| B10 | no binding |
| B11 | binds |
| B12 | no binding |
| B13 | binds |

molecular target: T1, VEGFR-3-Fc; test: receptor-Fc IP
Protocol: as §1

| Binder | binding result |
| --- | --- |
| B1 | binds |
| B2 | no binding |
| B3 | binds |
| B4 | binds |
| B5 | no binding |
| B6 | binds |
| B7 | binds |
| B8 | binds |
| B9 | no binding |
| B10 | no binding |
| B11 | binds |
| B12 | no binding |
| B13 | binds |
